# B1: anti-FHR-1.8E4 (antibody, V domains shown)
# VH: QVQLKQSGPGLVQPSQSLSITCTVSDFSLTNSGVHWVRQSPGKGLEWLGVIWSGGTTEYNAAFMSRLTITKDNSKSQVFFKMNSLLVDDTGIYYCARNFGNYAVDYWGQGTSVTVSS
# VL: QIVLSQSPAILSASPGEKVTMTCRASSSVRYMHWYQQKAGSSPTAWIFATSNLASGVPPRFSGSGSGTSYSLTISRVEAEDAATYYCQQWGTKPPTFGAGTKLELK
# notes: Mouse monoclonal from a hybridoma, raised against recombinant human FHR-1; also called aFHR-1 8E4
# Tests used:
# [1] = molecular target: T1, human factor H, full length (human, UniProt P08603 19-1231); assay: cell-based or functional assay
# [2] = molecular target: T2, recombinant human FH fragment CCP 18-20 (human, UniProt P08603 1046-1231); assay: SPR (Biacore T200), mAb captured on ProtA or ProtG chip, FH CCP18-20 flowed over, 1:1 model
# T2 construct: domain: CCP 18-20; also called fragment of FH comprised of domain 18-20
# T2 sequence (looked up): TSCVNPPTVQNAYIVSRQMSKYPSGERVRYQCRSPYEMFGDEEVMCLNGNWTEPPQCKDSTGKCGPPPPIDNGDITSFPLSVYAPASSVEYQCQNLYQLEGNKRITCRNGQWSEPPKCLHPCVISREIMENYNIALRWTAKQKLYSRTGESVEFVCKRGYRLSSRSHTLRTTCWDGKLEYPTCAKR
# Description: (§1) Surface plasmon resonance (SPR) experiments were performed using a BiaCore T200 (GE Healthcare) and CM5 sensor chips (GE Healthcare) in accordance with the manufacturer's instructions. In short, to determine its affinity, anti-FH.07, anti-FHR-1 3B4 or anti-FHR-1 8E4 were captured onto a ProtA or ProtG coupled chip and either full length FH or a fragment of FH comprising domain 18-20 was flown over the captured moAB at decreasing concentrations.
# [3] = molecular target: T1, human factor H, full length; assay: SPR (Biacore T200), mAb captured on ProtA or ProtG chip, full length FH flowed over, 1:1 model
# Description: as §1
# [4] = molecular target: T2, recombinant human FH fragment CCP 18-20; assay: SPR, mAb captured, FH CCP18-20 flowed over (fuller figure of the value rounded to 0.03 × 10^-9 in Table 2)
# Description: as §1
# [5] = molecular target: T3, recombinant human FH fragment CCP 19-20 (human, UniProt P08603 1107-1231); assay: competition ELISA: mAb captured on RM-19 coated plate, FH-bt mixed with unlabelled CCP 19-20
# T3 construct: domain: CCP 19-20
# T3 sequence (looked up): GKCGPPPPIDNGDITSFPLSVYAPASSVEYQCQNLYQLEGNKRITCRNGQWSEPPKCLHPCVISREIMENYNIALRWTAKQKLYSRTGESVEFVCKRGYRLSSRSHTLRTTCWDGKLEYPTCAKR
# Description: The location of the epitope of anti-FHR-1 mAbs was determined using recombinant human FH fragments composed of multiple CCP domains (15-18, 15-19, 18-20 or 19-20). In short, anti-FHR-1 mAbs were captured on a RM-19 coated microtiterplate to assure optimal binding conformation. Next, biotinylated FH, mixed with a 100-fold higher concentration of the indicated unlabeled recombinant FH-fragments, was incubated on the plate for 1 hour. Binding of biotinylated FH was determined by incubation with 0.01% (v/v) streptavidin conjugated with poly-HRP, in HPE for 30 min. The ELISA was further developed as described above. To determine whether the anti-FHR-1 mAbs competed with anti-FH.07 for the binding of FH, a similar set-up was used. In short, mAbs were directly coated to the plate and binding of biotinylated FH (FH-bt) in the absence or presence of a 10-fold higher concentration of indicated mAbs was assessed by ELISA as described above.
binder,measurement,setting,value
B1,"IC50 (nM), Hemolytic assay",[1],128 nM
same,"IC50 (nM), LPS C3b dep. assay",[1],26.3 nM
same,Kd,[2],0.03 nM
same,koff,[2],4.96e-05 s⁻¹
same,kon,[2],1.58e+06 M⁻¹ s⁻¹
same,Kd,[3],10.4 nM
same,koff,[3],9.39e-05 s⁻¹
same,kon,[3],9000 M⁻¹ s⁻¹
same,Kd,[4],0.0313 nM
same,binding result,[5],no binding
